The values below come from PMC8718552 (Frontiers in Immunology, 2021).

In series [1] the target is SARS-CoV-2 ORF8 (S84) (71–76) A mutant (SARS-CoV-2) (UniProt P0DTC8). Description: SEC. Background: In gel filtration, larger molecules generally elute earlier.
Series [2] addresses SARS-CoV-2 ORF8 (S84) Ig-like domain (SARS-CoV-2) (UniProt P0DTC8). Description: non-reducing SDS-PAGE.
For series [3] the target is unchanged. The experiment in a line: SEC.
Series [4] deals with CD14 on human CD14+ monocytes (UniProt P08571). The experiment in a line: flow cytometry on cells. Background: A flow cytometer gives signals particle by particle.
The series “non-reducing SDS-PAGE” deals with the molecule itself. Description: non-reducing SDS-PAGE.

CD14 on human CD14+ monocytes, sequence (P08571 20-345): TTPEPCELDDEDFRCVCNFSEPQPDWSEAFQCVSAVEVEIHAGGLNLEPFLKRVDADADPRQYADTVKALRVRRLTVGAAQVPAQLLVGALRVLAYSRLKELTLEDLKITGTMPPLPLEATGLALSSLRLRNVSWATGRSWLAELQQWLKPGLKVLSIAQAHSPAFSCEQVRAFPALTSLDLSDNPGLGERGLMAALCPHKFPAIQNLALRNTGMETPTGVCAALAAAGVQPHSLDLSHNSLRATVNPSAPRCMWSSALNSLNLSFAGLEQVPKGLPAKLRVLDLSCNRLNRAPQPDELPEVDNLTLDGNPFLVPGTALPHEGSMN

In series [1], “SARS-CoV-2 ORF8 (S84) (71–76) A mutant (from UniProt P0DTC8 16-121) (domain or fragment)” registered a stoichiometry N of 2.
For “SARS-CoV-2 ORF8 (S84) Ig-like domain (from UniProt P0DTC8 16-121) (domain or fragment)”, the stoichiometry N in series [2] and in series [3] was 2 throughout.
As to “SARS-CoV-2 ORF8 (L84) Ig-like domain (from UniProt P0DTC8) L84S”, the response was found to be 37.7% in series [4] (parent: 48.7); 32.7% in series [4] (parent: 51.8); 32.7% in series [4] (parent: 54.1); 47.9% in series [4] (parent: 68.0); 38% in series [4] (parent: est. 56, read off a plot).

B1: SARS-CoV-2 ORF8 (L84) (71–76) A (domain or fragment)
chain: FHQECSLQSCTQHQPYVVDDPCPIHFYSKWYIRVGARKSAPLIELCVDEAGSKSPAAAAAAGNYTVSCLPFTINCQEPKLGSLVVRCSFYEDFLEYHDVRVVLDFI
With B1, in “non-reducing SDS-PAGE”, the binding result is “binds”.

As usually defined, the stoichiometry N is the number of molecules, sites or subunits per partner or assembly.
